Measured values as given in patent US20220227875A1 (UNIVERSITY OF FLORIDA RESEARCH FOUNDATION, published 2022).

B1: K1-70 thyroid blocking antibody (commercially available K1-70 antibody) (antibody, V domains shown)
VH: EVQLVQSGAEVKKPGQSLKISCKASGYSLTDNWIGWVRQKPGKGLEWMGIIYPGDSDTRYSPSFQGQVTISADKSINTAYLQWSSLKASDTAIYYCVGLDWNYNPLRYWGPGTLVTVSS
VL: QSVLTQPPSVSAAPGQKVTISCSGSSSDIGSNYVSWYQQFPGTAPKLLIYDNNKRPSAIPDRFSGSKSGTSATLGITGLQTGDEADYYCGTWDSRLGIAVFGGGTQLTVLG

How the values were obtained:
[1] = biological target: human thyroid-stimulating hormone receptor (TSHR) (human) (UniProt P16473); experiment: cell-based or functional assay
[2] = biological target: human thyroid-stimulating hormone receptor (TSHR) (human, UniProt P16473 21-764); experiment: cell-based or functional assay

| Molecule | cAMP levels in HEK-TSHR cells, EC50 [1] [µg/mL] | inhibition of M22 (100 ng/ml)-induced cAMP in HEK-TSHR cells, IC50 [2] [µg/mL] | inhibition of TSH (150 ng/ml)-induced cAMP in HEK-TSHR cells, IC50 [2] [µg/mL] |
| --- | --- | --- | --- |
| recombinant thyroid-stimulating hormone (TSH) (ligand) | 0.168 | – | – |
| thyroid-stimulating antibody M22 | 42.5 | – | – |
| B1 | – | 1.38 | 1.18 |
